Target: recombinant stabilized SARS-CoV-2 Spike ectodomain (S-6P, HexaPro Spike), his-tagged (SARS-CoV-2, Wuhan-Hu-1 (HexaPro …, stabilised))
Experiment: SPR

B1: CV3-13 Fab (Fab, V domains shown)
VH: QVQLQQSGPGLVKPSQTLSLTCTVAGGSISSGTYYWSWIRQPAGKGLEWIGRIYTSGSANYNPSLKSRVTISVDTSKNQFSLRLSSVTAEDTAVYYCAREYSSSYYYFYYMDVWGKGTTVTVSS
VL: AIRMTQSPSSLSASVGDRVTITCQASQDISNYLNWYQQKPGKAPKLLIYVASNLETGVPSRFSGSGFGTDFTFTISSLQPEDIATYYCQQFDNLPYTFGQGTKLEIK
- Kd: ~55 nM
